{
  "source": "patent US20050042208A1",
  "target": "CD44 existing on the cell surface of CTLs (human) (UniProt P16070)",
  "sequence (P16070 21-742)": "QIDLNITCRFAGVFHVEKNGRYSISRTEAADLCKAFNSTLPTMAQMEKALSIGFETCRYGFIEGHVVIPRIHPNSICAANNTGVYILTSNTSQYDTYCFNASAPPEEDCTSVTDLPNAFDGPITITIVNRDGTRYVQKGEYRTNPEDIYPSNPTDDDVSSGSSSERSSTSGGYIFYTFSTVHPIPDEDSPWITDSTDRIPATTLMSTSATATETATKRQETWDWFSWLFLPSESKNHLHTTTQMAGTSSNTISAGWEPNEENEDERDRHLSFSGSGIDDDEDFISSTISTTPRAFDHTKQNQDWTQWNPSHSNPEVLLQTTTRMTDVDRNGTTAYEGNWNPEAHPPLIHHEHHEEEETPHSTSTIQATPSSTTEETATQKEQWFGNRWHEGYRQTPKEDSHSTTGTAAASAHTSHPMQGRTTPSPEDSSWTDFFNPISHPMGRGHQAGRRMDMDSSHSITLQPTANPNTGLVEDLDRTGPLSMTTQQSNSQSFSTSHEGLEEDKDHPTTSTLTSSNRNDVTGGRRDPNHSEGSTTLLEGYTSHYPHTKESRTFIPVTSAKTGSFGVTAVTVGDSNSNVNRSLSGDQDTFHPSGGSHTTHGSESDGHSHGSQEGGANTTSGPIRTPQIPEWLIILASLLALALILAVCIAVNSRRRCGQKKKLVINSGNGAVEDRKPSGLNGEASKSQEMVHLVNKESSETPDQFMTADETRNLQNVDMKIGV",
  "experiment": "cell-based or functional assay",
  "data": [
    {"substance": "anti-CD44 antibody (hyaluronic acid-bound Non-blocking antibody; HA Non-blocking Anti-CD44 Antibody), monoclonal, manufactured by Ancell", "values": [
      {"measurement": "Cytotoxic Activity (%), E/T Ratio 3, peptide pulse +, after expansion with antibody", "value": 32.4, "unit": "%"},
      {"measurement": "Cytotoxic Activity (%), E/T Ratio 3, peptide pulse -, after expansion with antibody", "value": 10.3, "unit": "%"},
      {"measurement": "Cytotoxic Activity (%), E/T Ratio 10, peptide pulse +, after expansion with antibody", "value": 60.1, "unit": "%"},
      {"measurement": "Cytotoxic Activity (%), E/T Ratio 10, peptide pulse -, after expansion with antibody", "value": 14.2, "unit": "%"},
      {"measurement": "Cytotoxic Activity (%), E/T Ratio 30, peptide pulse +, after expansion with antibody", "value": 105, "unit": "%"},
      {"measurement": "Cytotoxic Activity (%), E/T Ratio 30, peptide pulse -, after expansion with antibody", "value": 21.2, "unit": "%"}
    ]}
  ]
}
